Results on 84 variants are retold here after the RNAGym collection of RNA variant scans (doi:10.1073/pnas.2313332121).

Sequences and labels used below:
B1: TPR t1 (parent)
chain: GACCAAUCUGCCCUCAGAGCUCGAGAACAUCUUCGGAUGCAGAGGAGGCAGGCUUCGGUGGCGCGAUAGCGCCAACGUCCUCAACCUCCAAUGCAUCCCACCACAUGAUGAUGCCUGAAGAGCCUUGGUUUUUUG

The variants in this data set derive from B1. The experiment in a line: polymerase ribozyme fitness, log enrichment relative to wild type (log ratio); higher = more active; in vitro selection for triplet polymerase activity. The essentials: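 For each subunit of a heterodimeric triplet polymerase ribozyme, a mutant library was built by PCR and transcribed, then taken through a single in vitro selection round in triplicate. Selection involved annealing to a biotinylated primer, the partner subunit and triplets, incubation frozen at −7 °C, gel excision of extended constructs, capture on streptavidin beads and RT-PCR. Genotypes were retained after Illumina sequencing of inputs and outputs only with ≥10 input reads and ≥1 read in each output. Fitness is defined as the logarithm of a genotype's enrichment relative to wild-type enrichment, using inverse-variance-weighted averages across replicates, with the logarithm taken to base 2.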
Turning to G42C U55A G71C G113U G120U C123U U125A, the “polymerase ribozyme fitness (log ratio)” value is -5.08. Then G42U G48A G52C C56G G69U G127U, with -3.16. For G42U G77U U106A G120C the value was -2. Then G42A U130C U133A, with -1.86; and A43C C85A C104U G113A, with -2.96. With A43G A46U U55G, the “polymerase ribozyme fitness (log ratio)” value was -2.46.

With A43G A74U, the “polymerase ribozyme fitness (log ratio)” value is -2.25. Then A43G A74C, with -2.19; and A43C G117C, with -4.86. For A43C U129A the value was -3.98; for G42U U55G U125A, -1.45.

Take G42U C73A C114G: the “polymerase ribozyme fitness (log ratio)” value is -1.95. For A43G A50G C70A C101U the value was -5.22; for G42U C70G, -4.95. As for G42U C94U G113A, the “polymerase ribozyme fitness (log ratio)” value is -2.64.

Take G42A G63C: the “polymerase ribozyme fitness (log ratio)” value was -2.96. For G42U C53G C56A the value was -1.17.

In the case of G42U G71U C101U, the “polymerase ribozyme fitness (log ratio)” value is -1.49.

In the case of A43C A46C U96A U106A U116G C123A, the “polymerase ribozyme fitness (log ratio)” value is -7.89. In the case of G42C G52U G60C, the “polymerase ribozyme fitness (log ratio)” value was -2.14. For the variant G42U G93C, the “polymerase ribozyme fitness (log ratio)” value was -2.17. For G42C C89U C102A the value was -5.66; for A43C C115G, -3.94; for A43C G47U U112A G135A, -1.87.

In the case of G42U G63A, the “polymerase ribozyme fitness (log ratio)” value was -2.77. For G42U G63C, the “polymerase ribozyme fitness (log ratio)” value was -2.22.

Take G42U C53G G69U: the “polymerase ribozyme fitness (log ratio)” value was -0.375. Consider G42A G45C C123U, for which the “polymerase ribozyme fitness (log ratio)” value is -1.9. On to G42C G63C C73A, for which the “polymerase ribozyme fitness (log ratio)” value was -3.92. For the variant G42C A66G C89G, the “polymerase ribozyme fitness (log ratio)” value is -4.07.

Regarding G42U G71C, the “polymerase ribozyme fitness (log ratio)” value is -3.19.

On to G42U A43C, for which the “polymerase ribozyme fitness (log ratio)” value is -1.95. Then G42C C76A U78A, with -2.31; and G42U G60A C101U A121G, with 0.281. For G42U G77A C88A U92C the value was -3.21; for G42U C82G C115G, -3.58. In the case of A43C G60U U78C C104A G120C, the “polymerase ribozyme fitness (log ratio)” value was -5.55. For A43C G52A the value was -2.92; for A43C G93C U130A, -3.38. For the variant A43C G120U, the “polymerase ribozyme fitness (log ratio)” value is -2.7. Turning to G42C A74U U96G C124U, the “polymerase ribozyme fitness (log ratio)” value is -1.27. For G42C A43U C86U U96C, the “polymerase ribozyme fitness (log ratio)” value was -2.55. For G42U G52A C101U the value was -1.81. Then A43C G44C A118U U133G, with -1.11; and G42U G69U C115A, with -1.45; and G42A G120U, with -1.82. Then A43G A121G U129A, with -0.572; and G42A G77U G120C, with -1.93; and G42A G93A C114U, with -3.01. With G42A U106A G120U U132A, the “polymerase ribozyme fitness (log ratio)” value is -2.41. In the case of A43C C73A U81G C86U, the “polymerase ribozyme fitness (log ratio)” value was -6.91. Regarding G42C G48C U55C, the “polymerase ribozyme fitness (log ratio)” value was -1.95. For G42A G117C the value was -3.8.

Regarding G42A G61C, the “polymerase ribozyme fitness (log ratio)” value was -3.18. For G42A G61A, the “polymerase ribozyme fitness (log ratio)” value was -1.27. For the variant G42C C56A, the “polymerase ribozyme fitness (log ratio)” value was -1.76. In the case of A43C G61U C82U C104G C123A, the “polymerase ribozyme fitness (log ratio)” value is -7.32. Turning to G42A C73G C79A U130A, the “polymerase ribozyme fitness (log ratio)” value was -5.42. G42A G44A G47U C64U: the “polymerase ribozyme fitness (log ratio)” value was -4.22. As to G42C C124A, the “polymerase ribozyme fitness (log ratio)” value was -0.168. Then G42A G45C, with -2.81; and G42U C101U G113C, with -2.52.

As for A43C C56G C62G A68G G120A, the “polymerase ribozyme fitness (log ratio)” value is -7.42.

Regarding G42U C56G C73A, the “polymerase ribozyme fitness (log ratio)” value was -4.4. On to A43G A50G G60A, for which the “polymerase ribozyme fitness (log ratio)” value was -4.16. With G42U G45A G63C, the “polymerase ribozyme fitness (log ratio)” value is -1.98. For A43G A118G the value was -1.54; for G42U C56U C115G, -2.13; for G42C C89G, -1.06. For G42A U55A U112G C115A the value was -2.35. For G42U G44A C70A G127U, the “polymerase ribozyme fitness (log ratio)” value is -4.25.

For the variant G42C U54G C88A C102A, the “polymerase ribozyme fitness (log ratio)” value was -5.41. With G42C C79U A95G U129C, the “polymerase ribozyme fitness (log ratio)” value was -2.57.

In the case of G42U A68U C123G U130A, the “polymerase ribozyme fitness (log ratio)” value is -5.54.

Consider G42C C49G C56U, for which the “polymerase ribozyme fitness (log ratio)” value is -2.41. Then G42U A75G G93C, with -2.29; and G42U A68C G107C C114U G128C U133G, with -6.38.

Regarding A43C G48A, the “polymerase ribozyme fitness (log ratio)” value was -2.56. Consider G42U C53U C82U G93A C99A G107U C114G C123G U125A G127A, for which the “polymerase ribozyme fitness (log ratio)” value was -4.42. For the variant G42C G61U G120A, the “polymerase ribozyme fitness (log ratio)” value was -0.458. For G42C A84U the value was -1.87. Take G42C C89U C101G: the “polymerase ribozyme fitness (log ratio)” value was -2.74. In the case of A43C G60U U133G, the “polymerase ribozyme fitness (log ratio)” value is -2. For G42A U55G the value was -1.85.
